According to the supplement of paper PMC10567573:

B1: RHOBTB2 (parent)
chain: NQEITKAFHVRRTNRVKECLAKGT
B2: RHOBTB3 (parent)
chain: VSHVFMLLFNVKSPTDIQDSSIIR

Variants of: B1
Test: protein stability index of a GFP-peptide fusion (GPS, HEK-293T) (PSI 1-6); higher = more stable
Settings: c terminus: a fixed tail appended
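Note: lentivirally expressed fusions sorted by FACS into six bins by GFP to DsRed ratio, PSI derived from sequencing read proportions per bin multiplied by bin number.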

Row | Variant | protein stability index
1 | T24N | 3.36
2 | T24F | 1.81
3 | T24M | 2.86
4 | T24C | 2.19
5 | T24G | 2.92
6 | T24W | 2.69
7 | T24D | 3.46
8 | T24I | 2.16
9 | T24K | 3.88
10 | T24S | 3.61
11 | T24R | 2.7
12 | T24P | 3.65
13 | T24L | 3.53
14 | T24A | 3.55
15 | T24H | 3.32
16 | T24V | 2.7
17 | G23T | 2.66

Row | Variant | protein stability index
18 | G23N | 3.02
19 | G23Y | 2.26
20 | G23V | 1.75
21 | G23I | 2.61
22 | G23D | 2.73
23 | G23K | 4.17
24 | G23F | 2.07
25 | G23L | 2.56
26 | G23S | 3.11
27 | G23Q | 2.99
28 | G23E | 3.64
29 | G23P | 3.25
30 | G23C | 2.67
31 | G23R | 2.82
32 | G23H | 2.84
33 | G23W | 2.61
34 | G23A | 2.73

Variants of: B2
Test: as above
Settings: c terminus: a fixed tail appended

Row | Variant | protein stability index
35 | H3E | 1.42
36 | H3S | 2.28
37 | H3V | 3.75
38 | H3P | 1.52
39 | H3R | 2.1
40 | H3Q | 2.51
41 | H3D | 2.38
42 | H3G | 3.65
43 | H3M | 1.78
44 | H3W | 3.07
45 | H3L | 2.69
46 | V1P | 3.42
47 | V1M | 3.38
48 | V1Q | 2.22
49 | V1L | 1.33
50 | V1N | 1.89
51 | V1W | 3.32
52 | V1F | 2.54
53 | V1A | 2.98
54 | V1S | 2.88
55 | V1K | 1.05
56 | V1D | 2.05
57 | V1E | 2.08

Row | Variant | protein stability index
58 | V1I | 3.46
59 | L7I | 2.99
60 | L7V | 2.34
61 | L7W | 2.9
62 | L7E | 2.13
63 | L7Y | 2.77
64 | L7T | 2.73
65 | L7S | 1.72
66 | L7G | 2.25
67 | L7P | 2.18
68 | L7N | 2.25
69 | L7H | 3.82
70 | L7F | 3.17
71 | L7Q | 2.23
72 | L7C | 2.94
73 | L7D | 1.93
74 | L7M | 2.37
75 | L7R | 2.4
76 | L7A | 1.74
77 | L7K | 1.59
78 | L8H | 2.23
79 | L8D | 1.81
80 | L8S | 2.78

Row | Variant | protein stability index
81 | L8G | 2.55
82 | L8F | 2.22
83 | L8M | 2.95
84 | L8C | 2.23
85 | L8Q | 2.75
86 | L8N | 2.46
87 | L8E | 1.36
88 | L8K | 2.71
89 | L8P | 2.34
90 | M6P | 1.59
91 | M6F | 3.03
92 | M6K | 1.42
93 | M6R | 1.77
94 | M6N | 2.98
95 | M6T | 2.99
96 | M6I | 2.83
97 | M6S | 2.2
98 | M6Y | 3.18
99 | M6V | 3.62
100 | M6E | 2.43
101 | M6A | 3
102 | M6D | 2.26
103 | M6G | 2.29

Row | Variant | protein stability index
104 | M6L | 3.66
105 | M6H | 2.87
106 | M6C | 1.98
107 | M6Q | 2.24
108 | S2V | 3.75
109 | S2N | 2.84
110 | S2A | 2.55
111 | S2K | 3.57
112 | S2D | 2.44
113 | S2G | 2.58
114 | S2F | 3.6
115 | S2L | 3.13
116 | S2M | 3.95
117 | S2W | 2.82
118 | S2Y | 2.75
119 | F9L | 3.21
120 | F9W | 3.94
121 | F9S | 2.61
122 | F9R | 2.74
123 | F9K | 2.21
124 | F9P | 1.55
125 | F9I | 2.62
126 | F9E | 2.21

Row | Variant | protein stability index
127 | F9N | 1.93
128 | F9T | 1.57
129 | F9H | 1.63
130 | F9D | 1.45
131 | F9C | 2.44
132 | F9Q | 1.5
133 | F9G | 1.69
134 | F9A | 1.92
135 | V4E | 1.3
136 | V4R | 3.04
137 | V4F | 4.42
138 | V4S | 1.89
139 | V4M | 2.52
140 | V4T | 2.54
141 | V4K | 1.97
142 | V4P | 2.12
143 | V4Y | 1.61
144 | V4N | 1.19
145 | V4G | 2.28
146 | V4W | 2.46
147 | V4Q | 3.13
148 | V4C | 4.79
149 | V4D | 2.16

Row | Variant | protein stability index
150 | F5M | 1.44
151 | F5A | 1.5
152 | F5S | 1.95
153 | F5T | 1.71
154 | F5H | 2.29
155 | F5G | 1.19
156 | F5P | 2.04
157 | F5R | 1.41
158 | F5Y | 3.79
159 | F5V | 3.38
160 | F5I | 2.31
161 | F5L | 4.65
162 | F5Q | 1.95
163 | F5N | 1.97
164 | F5E | 2.3
165 | F5K | 1.84
166 | F5D | 2.29
167 | F5C | 2.99
